In PMC3272004:

Columns and labels:
[1] = molecular target: GST-tagged histone H3 tail (UniProt P61830); test: pull-down; GST-H3 tail or GST-H4 tail immobilised on glutathione beads; in vitro translated [35S]-Gro variants; overnight at 4°C in HEMNK buffer (40 mM HEPES pH 7.5, 5 mM MgCl2, 0.2 mM EDTA, 1 mM DTT, 0.5% NP-40, 0.1 M KCl); autoradiography
[2] = molecular target: GST-tagged histone H4 tail (UniProt P02309); test: as above

- fold reduction of binding against Gro^WT [1]: > 4 fold
- fold reduction of binding against Gro^WT [2]: > 4 fold
Substance: Gro^ΔCR, Gro deletion variant lacking the entire central region (GP, CcN and SP domains), untagged (from UniProt P16371 1-730) (natural protein)
